Test results taken from patent publication US20090047211A1.
Blank lines part the entries; values can stand above or below the molecule they belong to.

How the values were obtained:
[1] = biological target: mesothelin-Fc fusion protein (extracellular domain of human mesothelin fused with rabbit IgG Fc) (rabbit; human) (UniProt Q13421); experiment: Biacore, affinity to mesothelin-Fc in solution
[2] = biological target: mesothelin-Fc fusion protein (extracellular domain of human mesothelin fused with rabbit IgG Fc) (rabbit; human) (UniProt Q13421); experiment: Western blot on SDS-denatured mesothelin-Fc, MAb 1 µg/ml
[3] = biological target: mesothelin (native, on mesothelin-expressing human cells and in mesothelioma tissue) (human) (UniProt Q13421); experiment: flow cytometry on H226 cells, MAb 1 µg/ml, PE-labeled anti-mouse IgG; conditions: scale: log geometric mean of fluorescence intensity
[4] = biological target: mesothelin-Fc fusion protein (extracellular domain of human mesothelin fused with rabbit IgG Fc) (rabbit; human) (UniProt Q13421); experiment: ELISA on plates coated with mesothelin-Fc, HRP-labeled anti-mouse IgG
[5] = biological target: mesothelin-Fc fusion protein (extracellular domain of human mesothelin fused with rabbit IgG Fc) (rabbit; human) (UniProt Q13421); experiment: ELISA on mesothelin-Fc (summary of Table 1)
[6] = biological target: mesothelin-Fc fusion protein (extracellular domain of human mesothelin fused with rabbit IgG Fc) (rabbit; human) (UniProt Q13421); experiment: Western blot on SDS-denatured mesothelin-Fc
[7] = biological target: mesothelin-Fc fusion protein (extracellular domain of human mesothelin fused with rabbit IgG Fc) (rabbit; human) (UniProt Q13421); experiment: Western blot on mesothelin-Fc (summary of Table 1)

Kd [1]: 12 nM
minimum amount of mesothelin-Fc detected in Western blot [2]: 25 ng
FACS reactivity to H226 cells (log geometric mean of fluorescence intensity) [3]: 2.5
amount of MAb that showed OD450 = 0.5 in ELISA [4]: 1000 ng/mL
Molecule: MAb K1 (antibody)

fold reactivity in ELISA against the K1 and 5B2 antibodies [5]: 500 fold
fold sensitivity in Western blot against MAbs K1 and 5B2 [6]: 10 fold
Kd [1]: 0.6 nM
fold sensitivity in Western blot against the K1 and 5B2 antibodies [7]: 12 fold
minimum amount of mesothelin-Fc detected in Western blot [2]: 2 ng
FACS reactivity to H226 cells (log geometric mean of fluorescence intensity) [3]: 3.3
amount of MAb that showed OD450 = 0.5 in ELISA [4]: 1.9 ng/mL
B1: MAb MB (antibody, IgG2a, V domains shown)
VH: EVKLVESGGGLVQPGGSLSLSCAASGFTFTDYYMSWVRQPPGRALEWLGFIRGKANGYTTEYSASVKGRFTISRDYSQSILYLHMNALRAEDSATYSCARYYYSNYVWYFDVWGTGTTVTVSS
VL: DIVMTQSQKFMSTSVGDRVSVTCKASQNVGTNVAWYQQKPGLSPKVLIHSASYRFSGVPDRFTGSGSGTDFTLSISNVQSEDLAKYFCQQYNSYPLTFGAGTKLELKR

fold reactivity in ELISA against the K1 and 5B2 antibodies [5]: 500 fold
fold sensitivity in Western blot against MAbs K1 and 5B2 [6]: 10 fold
Kd [1]: 1 nM
fold sensitivity in Western blot against the K1 and 5B2 antibodies [7]: 12 fold
minimum amount of mesothelin-Fc detected in Western blot [2]: 2 ng
FACS reactivity to H226 cells (log geometric mean of fluorescence intensity) [3]: 3.5
amount of MAb that showed OD450 = 0.5 in ELISA [4]: 1.1 ng/mL
B2: MAb MN (antibody, IgG2a, V domains shown)
VH: QVQLQQPGAELVKPGASMKLSCKASGYTFTSYWMHWVKQRPGQGLEWIGMIHPNSDNTIYYEKFKSKATLTVDKSSSTAYMQLSSLTSEDSAVYYCAIIITPVVPKFDYWGQGTTLTVSS
VL: DIVMTQSHQFMSTSVGDRVSVTCKASHDVGTSVAWYQQKPGQSPKLLIYWASTRHTGVPDRFTGSGSGTDFTLTISNVQSEDLADYFCQQYSSYPLTFGAGTKLELKR
